Test system: STAT6
Assay: Screening of full-length cDNA clones for promotion of STAT6 activation (luciferase reporter N4×8-luc)
Type: cell-based
Conditions: NIH3T3 cells cotransfected with N4×8-luc reporter and cDNA plasmid; 48 h culture, then mouse IL-4 0.5 ng/ml for 6 h
How it was run: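 NIH3T3 cells cotransfected with STAT6-responsive N4×8-luc reporter (100 ng) and full-length cDNA, cultured 48 h, then given mouse IL-4 at 0.5 ng/ml final for 6 h. Luciferase activity compared with reporter plus null-vector control.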

| Molecule | Activity = (luciferase activity of the gene of each SEQ ID NO:)/(luciferase activity of pME18S-FL3) |
| --- | --- |
| 159 (nucleic acid, listed as Homo sapiens, CDS (19)..(1227)) CCGGCGGGCTGGTGAGGAATGGAGCCGGTAGGCTGCTGCGGCGAGTGCCGCGGCTCCTCCGTAGACCCGCGGAGCACCTTCGTGTTGAGTAACCTGGCGGAGGTGGTGGAGCGTGTGCTCACCTTCCTGCCCGCCAAGGCGTTGCTGCGGGTGGCCTGCGTGTGCCGCTTATGGAGGGAGTGTGTGCGCAGAGTATTGCGGACCCATCGGAGCGTAACCTGGATCTCCGCAGGCCTGGCGGAGGCCGGCCACCTGGAGGGGCATTGCTTGGTTCGCGTGGTAGCAGAGGAGCTTGAGAATGTTCGCATCTTACCACATACAGTTCTTTACATGGCTGATTCAGAAACTTTCATTAGTCTGGAAGAGTGTCGTGGCCATAAGAGAGCAAGGAAAAGAACTAGTATGGAAACAGCACTTGCCCTTGAGAAGCTATTCCCCAAACAATGCCAAGTCCTTGGGATTGTGACCCCAGGAATTGTAGTGACTCCAATGGGATCAGGTAGCAATCGACCTCAGGAAATAGAAATTGGAGAATCTGGTTTTGCTTTATTATTCCCTCAAATTGAAGGAATAAAAATACAACCCTTTCATTTTATTAAGGATCCAAAGAATTTAACATTAGAAAGACATCAACTCACTGAAGTAGGTCTTTTAGATAACCCTGAACTTCGTGTGGTCCTTGTCTTTGGTTATAATTGCTGTAAGGTGGGAGCCAGTAATTATCTGCAGCAAGTAGTCAGCACTTTCAGTGATATGAATATCATCTTGGCTGGAGGCCAGGTGGACAACCTGTCATCACTGACTTCTGAAAAGAACCCTCTGGATATTGATGCCTCGGGTGTGGTTGGACTGTCATTTAGTGGACACCGAATCCAGAGTGCCACTGTGCTCCTCAACGAGGACGTCAGTGATGAGAAGACTGCTGAGGCTGCGATGCAGCGCCTCAAAGCGGCCAACATTCCAGAGCATAACACCATTGGCTTCATGTTTGCATGCGTTGGCAGGGGCTTTCAGTATTACAGAGCCAAGGGGAATGTTGAGGCTGATGCATTTAGAAAGTTTTTTCCTAGTGTTCCCTTATTCGGCTTCTTTGGAAATGGAGAAATTGGATGTGATCGGATAGTCACTGGGAACTTTATATTGAGGAAATGTAATGAGGTAAAAGATGATGATCTGTTTCATAGCTATACAACAATAATGGCACTCATACATCTGGGGTCATCTAAATAATAATTAAAGTGGCTTTCATAATATGT | 19.1 |
| 423 (nucleic acid, listed as Homo sapiens, CDS (83)..(709)) AAAAAAAAAGCTGGGAGCCGCCGCCCCCGCAGCTGCTGCCGCCGCCGCCAGGGCCCGGACTCGGACGCGTGGTAGCCCCAGGATGGGTGAGTTCAACGAGAAGAAGACAACATGTGGCACCGTTTGCCTCAAGTACCTGCTGTTTACCTACAATTGCTGCTTCTGGCTGGCTGGCCTGGCTGTCATGGCAGTGGGCATCTGGACGCTGGCCCTCAAGAGTGACTACATCAGCCTGCTGGCCTCAGGCACCTACCTGGCCACAGCCTACATCCTGGTGGTGGCGGGCACTGTCGTCATGGTGACTGGGGTCTTGGGCTGCTGCGCCACCTTCAAGGAGCGTCGGAACCTGCTGCGCCTGTACTTCATCCTGCTCCTCATCATCTTTCTGCTGGAGATCATCGCTGGTATCCTCGCCTACGCCTACTACCAGCAGCTGAACACGGAGCTCAAGGAGAACCTGAAGGACACCATGACCAAGCGCTACCACCAGCCGGGCCATGAGGCTGTGACCAGCGCTGTGGCAGCAACAACTCACAGGACTGGCGAGACAGTGAGTGGATCCGCTCACAGGAGGCCGGTGGCCGTGTGGTCCCAGACAGCTGCTGCAAGACGGTGGTGGCTCTTTGTGGGCAGCGAGACCATGCCTCCAACATCTACAAGGTGGAGGGCGGCTGCATCACCAAGTTGGAGACCTTCATCCAGGAGCACCTGAGGGTCATTGGGGCTGTGGGGATCGGCATTGCCTGTGTGCAGGTCTTTGGCATGATCTTCACGTGCTGCCTGTACAGGAGTCTCAAGCTGGAGCACTACTGACCCTGCCTTGGGCCTTGCTGCTGCTGCACCCAACTACTGAGCTGAGACCACTGAGTACCAGGGGCTGGGCTCCCTGATGACACCCACCCTGTGCCATCACCATAACCTCTGGGGACCCCAACCTCAGAGGCAGCTTCAAGTGCCTTTTGCTGCGCACCAATGCCCAGCAGGGGAGGTGAGGGGGGCTGGCGGGGCGAAGTTTGGGGGGTGTTTTGTGGGGCTCCCCAGACACACTCTCTGCCTGGTGGTCAGATGCAGGTTGGAAGGGGCCTTGCTGAGTGGCGCAAGGCCGAGCGTTCCCAGCAGGGGGAGAAACCCTTCACACCCCAGGCCCTTCAGGAACTGGGGCCTTGCCTTGCAGCCACATGGCCCCATCCCAGTTGGGGAAGCCAGGTGAGCTCTGACCCTTGGGCCTGGGCCTCTGCCCCTCCCAACCCAGCCCTCGTCTCCCTCGACAGCGCCCCTGCTGTCTTCCCCACCGCAGTCACCACCACCCGAAATGCCACGTGGTCACTGTGCACTGCCCTGTCCATGTGCCTCTGCGGGGCAGGGCCTTCCTGGTTTTGTTCACTGCTGTACCCAGATGCCTACAACCATCCCTGCCACATACAGGTGCTCAATAAACACTTGTAGAGCAGATGG | 4.8 |
| 455 (nucleic acid, listed as Homo sapiens, CDS (1)..(765)) ATGGTGTCCTGGATGATCTCCAGAGCCGTGGTGCTGGTGTTTGGAATGCTTTATCCTGCATATTATTCATACAAAGCTGTGAAAACAAAAAACGTGAAGGAATATGTTCGATGGATGATGTACTGGATTGTTTTTGCTCTCTATACTGTGATTGAAACAGTAGCCGATCAAACAGTTGCTTGGTTTCCCCTGTACTATGAGCTGAAGATTGCTTTTGTCATATGGCTGCTTTCTCCCTATACCAAAGGAGCAAGTTTAATATATAGAAAATTCCTTCATCCACTTCTTTCTTCAAAGGAAAGGGAGATTGATGATTATATTGTACAAGCAAAGGAACGAGGCTATGAAACCATGGTAAACTTTGGACGGCAAGGTTTAAACCTTGCAGCTACTGCTGCTGTTACTGCAGCAGTAAAGAGCCAAGGAGCAATAACTGAACGTTTAAGAAGCTTCAGTATGCATGATTTAACAACTATCCAAGGTGATGAGCCTGTGGGACAAAGACCATACCAACCTCTACCAGAAGCAAAAAAGAAAAGTAAACCAGCCCCCAGTGAATCAGCAGGTTATGGAATTCCACTGAAAGACGGAGATGAGAAAACAGATGAAGAAGCAGAGGGGCCATATTCAGATAATGAGATGTTAACACACAAAGGGCTTCGAAGATCGCAAAGCATGAAATCTGTGAAAACCACCAAAGGCCGCAAAGAGGTGCGGTACGGGTCACTAAAATACAAAGTGAAGAAACGACCACAAGTGTATTTTTAGTCATCTACACGTCAAATATCCC | 3.3 |
| 177 (nucleic acid, listed as Homo sapiens, CDS (136)..(903)) AAACGAAACGGTAACCAGCCCTGGGAAGCCCGCAAGAGGCCTCAGCGGTGGCCGTCCGAGCGCCGAGAGGTGAGGGTGCCCCCGCCTCACCTGCAGAGGGGCCGTTCCGGGCTCGAACCCGGCACCTTCCGGAAAATGGCGGCTGCCAGGCCCAGCCTGGGCCGAGTCCTCCCAGGATCCTCTGTCCTGTTCCTGTGTGACATGCAGGAGAAGTTCCGCCACAACATCGCCTACTTCCCACAGATCGTCTCAGTGGCTGCCCGCATGCTCAAGGTGGCCCGGCTGCTTGAGGTGCCAGTCATGCTGACGGAGCAGTACCCACAAGGCCTGGGCCCCACGGTGCCCGAGCTGGGGACTGAGGGCCTTCGGCCGCTGGCCAAGACCTGCTTCAGCATGGTGCCTGCCCTGCAGCAGGAGCTGGACAGTCGGCCCCAGCTGTGCTCTGTGCTGCTCTGTGGCATTGAGGCACAGGCCTGCATCTTGAACACGACCCTGGACCTCCTAGACCGGGGGCTGCAGGTCCATGTGGTGGTGGACGCCTGCTCCTCACGCAGCCAGGTGGACCGGCTGGTGGCTCTGGCCCGCATGAGACAGAGTGGTGCCTTCCTCTCCACCAGCGAAGGGCTCATTCTGCAGCTTGTGGGCGATGCCGTCCACCCCCAGTTCAAGGAGATCCAGAAACTCATCAAGGAGCCCGCCCCAGACAGCGGACTGCTGGGCCTCTTCCAAGGCCAGCTGCTCCCGGAAATGCAAATGAGACTCCTGGAAACTGGGTGGGAATTGGCTGAGCCGAGATGGAGGCGGGGCTCGGCCCCGGGCCACTTCACGGGGCGGGAAGGGGAGGGGAAGAAGAGTCTCAGACTGTGGGACACGGACTCGCAGAATAAACATATATGTGGCTGTG | 22.6 |
| 481 (nucleic acid, listed as Homo sapiens, CDS (112)..(1224)) GAAAGAGCCGAGTGGGCTCGAGGCCGACGCGACCATCGTTTGTCGACGCCGCTGCCACCGCCTGCCTGAGAGAAGTCGTCGCGGCCGACCCCGTCGCCTCCGCCGGCTACCATGTCCGCCCAGGCGCAGATGCGGGCCCTGCTGGACCAGCTCATGGGCACGGCTCGGGACGGAGACGAAACCAGACAGAGGGTCAAGTTTACAGATGACCGTGTCTGCAAGAGTCACCTTCTGGACTGCTGCCCCCATGACATCCTGGCTGGGACGCGCATGGATTTAGGAGAATGTACCAAAATCCACGACTTGGCCCTCCGAGCAGATTATGAGATTGCAAGTAAAGAAAGAGACCTGTTTTTTGAATTAGATGCAATGGATCACTTGGAGTCCTTTATTGCTGAATGTGATCGGAGAACTGAGCTCGCCAAGAAGCGGCTGGCAGAAACACAGGAGGAAATCAGTGCGGAAGTTTCTGCAAAGGCAGAAAAAGTACATGAGTTAAATGAAGAAATAGGAAAACTCCTTGCTAAAGCCGAACAGCTAGGGGCTGAAGGTAATGTGGATGAATCCCAGAAGATTCTTATGGAAGTGGAAAAAGTTCGTGCGAAGAAAAAAGAAGCTGAGGAAGAATACAGAAATTCCATGCCTGCATCCAGTTTTCAGCAGCAAAAGCTGCGTGTCTGCGAGGTCTGTTCAGCCTACCTTGGTCTCCATGACAATGACCGTCGCCTGGCAGACCACTTCGGTGGCAAGTTACACTTGGGGTTCATTCAGATCCGAGAGAAGCTTGATCAGTTGAGGAAAACTGTCGCTGAAAAGCAGGAGAAGAGAAATCAGGATCGCTTGAGGAGGAGAGAGGAGAGGGAACGGGAGGAGCGTCTGAGCAGGAGGTCGGGATCAAGAACCAGAGATCGCAGGAGGTCACGCTCCCGGGATCGGCGTCGGAGGCGGTCAAGATCTACCTCCCGAGAGCGACGGAAATTGTCCCGGTCCCGGTCCCGAGATAGACATCGGCGCCACCGCAGCCGTTCCCGGAGCCACAGCCGGGGACATCGTCGGGCTTCCCGGGACCGAAGTGCGAAATACAAGTTCTCCAGAGAGCGGGCATCCAGAGAGGAGTCCTGGGAGAGCGGGCGGAGCGAGCGAGGGCCCCCGGACTGGAGGCTTGAGAGCTCCAACGGGAAGATGGCTTCACGGAGGTCAGAAGAGAAGGAGGCCGGCGAGATCTGAACCCGTCTCCCGGGTGCTGTAAATAGTCTGATAAACGTTCACACAGTCTAAAATTACCCTTTATATTTGCTGAATACAACTCATCTTTTGTAGTTTAAAATTTCTATTGTTTTGGAGCTAGCTGTGAGTTTCTAGAAGTGTACAGAGTTGCTCCTGTGTTCCCGGGTCATGTTGAGTAGGAATAAATAAATCTGATGCTGCCTCCTGAGGCTGCGGGGGGTTT | 6.4 |
